We go through 26 variants from paper PMC6477152 (2019).

B1: FIP200ΔN1115:Luciferase [human] / GST:SINTBADaa5-85 [human] (parent complex)
chain 1: ENYQVGLAELRTLMTIEKDQCISELISRHEEESNILKAELNKVTSLHNQAFEIEKNLKEQIIELQSKLDSELSALERQKDEKITQQEEKYEAIIQNLEKDRQKLVSSQEQDREQLIQKLNCEKDEAIQTALKEFKLEREVVEKELLEKVKHLENQIAKSPAIDSTRGDSSSLVAELQEKLQEEKAKFLEQLEEQEKRKNEEMQNVRTSLIAEQQTNFNTVLTREKMRKENIINDLSDKLKSTMQQQERDKDLIESLSEDRARLLEEKKKLEEEVSKLRSSSFVPSPYVATAPELYGACAPELPGESDRSAVETADEGRVDSAMETSMMSVQENIHMLSEEKQRIMLLERTLQLKEEENKRLNQRLMSQSMSSVSSRHSEKIAIRDFQVGDLVLIILDERHDNYVLFTVSPTLYFLHSESLPALDLKPGEGASGASRRPWVLGKVMEKEYCQAKKAQNRFKVPLGTKFYRVKAVSWNKKV
chain 2: FEDDISILTQEALGPSEVWLDSPGDPSLGGDMCSASHFALITAYGDIKERLGGLERENATLRRRLKVYEIKYPLISDFGEE
B2: FIP200ΔN1115:Luciferase [human] / GST:NAP1aa5–75 [human] (parent complex)
chain 1: B1 chain 1
chain 2: VEDDICILNHEKAHKRDTVTPVSIYSGDESVASHFALVTAYEDIKKRLKDSEKENSLLKKRIRFLEEKLIA
B3: FIP200ΔN1115:Luciferase [human] / GST:NDP52 [human] (parent complex)
chain 1: B1 chain 1
chain 2: MEETIKDPPTSAVLLDHCHFSQVIFNSVEKFYIPGGDVTCHYTFTQHFIPRRKDWIGIFRVGWKTTREYYTFMWVTLPIDLNNKSAKQQEVQFKAYYLPKDDEYYQFCYVDEDGVVRGASIPFQFRPENEEDILVVTTQGEVEEIEQHNKELCKENQELKDSCISLQKQNSDMQAELQKKQEELETLQSINKKLELKVKEQKDYWETELLQLKEQNQKMSSENEKMGIRVDQLQAQLSTQEKEMEKLVQGDQDKTEQLEQLKKENDHLFLSLTEQRKDQKKLEQTVEQMKQNETTAMKKQQELMDENFDLSKRLSENEIICNALQRQKERLEGENDLLKRENSRLLSYMGLDFNSLPYQVPTSDEGGARQNPGLAYGNPYSGIQESSSPSPLSIKKCPICKADDICDHTLEQQQMQPLCFNCPICDKIFPATEKQIFEDHVFCHSL

The variants in the first experiment derive from B1. Briefly: LUMIER assay; HEK293ET cell lysates; bacterially expressed GST bait; read off a plot.
chain 1 T350A: the response was approximately 180 fold binding.

Take chain 1 R349A: the response is approximately 170 fold binding.

As for chain 1 A452S, the response was approximately 59 fold binding.

For chain 1 L353A, the response is approximately 170 fold binding.

For chain 1 Q352A, the response is approximately 210 fold binding.

As to chain 1 L347A, the response is approximately 99 fold binding.

As for chain 1 E348A, the response is approximately 200 fold binding.

Take chain 1 L351A: the response is approximately 110 fold binding.

In a further experiment the parent is B1. Briefly: LUMIER assay; HEK293ET cell lysates; read off a plot.
Take chain 1 A452S: the response is approximately 280 fold binding.

For the variant chain 1 V461S, the response is approximately 6.4 fold binding.

As to chain 1 F459S, the response is approximately 6.2 fold binding.

With chain 1 N457S, the response was approximately 7.8 fold binding.

In a further experiment the parent is B2. Described as above.
With chain 1 V461S, the response is approximately 1.7 fold binding.

For chain 1 F459S, the response is approximately 1.4 fold binding.

Consider chain 1 A452S, for which the response is approximately 12 fold binding.

On to chain 1 N457S, for which the response is approximately 1.4 fold binding.

Variants of B3 are the subject of another experiment. Briefly: LUMIER assay; HEK293ET cell lysates; bacterially expressed GST bait; read off a plot.
Regarding chain 1 Q352A, the response is approximately 44 fold binding.

Take chain 1 E348A: the response is approximately 49 fold binding.

chain 1 L351A: the response is approximately 38 fold binding.

On to chain 1 F459S, for which the response was approximately 52 fold binding.

Turning to chain 1 V461S, the response was approximately 50 fold binding.

chain 1 T350A: the response was approximately 51 fold binding.

For the variant chain 1 N457S, the response was approximately 15 fold binding.

chain 1 R349A: the response was approximately 33 fold binding.

chain 1 L347A: the response was approximately 42 fold binding.

Take chain 1 L353A: the response was approximately 32 fold binding.

Take chain 1 A452S: the response is approximately 22 fold binding.
